Laboratory results from patent publication US20220211858A1, “TUBULAR SUPRAMOLECULAR POLYMERS” (priority 2019, published 2022).
Read-outs that look alike come from different tables or passages of the source.

Experiments:
[1] = Drug release of SAPDs in rat plasma; format: in vitro ADME; settings: without GSH, read-out: remaining drugs
Method: The drug release in rat plasma (10%, v/v) were performed using similar protocols as those in PBS. To determine the amount of SAPDs and free CPT in each sample, 50 μL of sample was mixed with 200 μL acetonitrile (containing 0.1% TFA) and sonicated for 1 min. The supernatants were collected using centrifugation. All samples were filtered through a 0.22 μm membrane before analysis by a UPLC system (Waters ACQuity™ Ultra Performance LC) equipped with a reverse-phase column (ACQuity UPLC@BEH, C18, 1.7 μm 2.1×150 mm) and a fluorescence detector (ACQuity FLR, Ex/Em=362/430 nm). The column was flushed with a mixture of water (0.1% TFA) and acetonitrile (0.1% TFA) at 0.3 mL/min with the following gradient: 5% acetonitrile (0-1 min), 5-95% acetonitrile (1-5 min), 95% acetonitrile (5-8 min), 95-5% acetonitrile (8-9 min), and 5% acetonitrile (9-10 min). Peaks of SAPDs and free CPT were monitored and recorded, and the concentrations were calculated by comparing with standard curves.

HT-29 cells [2] = system: HT-29 cells
HT-29 cells [3] = test: Antitumor efficacy of SAPDs at near MTD on a HT-29 tumor model; settings: day 28; SAPD 1 12 mg/kg, SAPD 2-4 36 mg/kg i.v. days 1, 5, 9; irinotecan 100 mg/kg i.p. days 1, 8, 15
Method: Antitumor efficacy study of SAPDs at near MTD on a HT-29 tumor model. HT-29 tumor model was established as described above. When the averaged tumor size reached 70-110 mm^3, mice were randomly divided into six groups (n=5 for each group). Four different SAPDs were all i.v. dosed at near or slightly lower than their estimated MTDs. […] The irinotecan (i.p. injection, 100 mg/kg at days 1, 8 and 15) and the PBS groups were used as controls. All other protocols were similar to those in the above-mentioned efficacy study.

[4] = Maximum tolerated dose (MTD) dose escalation study; format: in vivo, athymic nude mice; settings: for MTD: female, athymic nude, mouse, in vivo, iv, single i.v. injection, CPT equivalent, healthy athymic nude mice; for Maximum % BW loss: n=3
Method: Maximum tolerated dose (MTD) studies. MTD of SAPD 1 has been previously determined in our lab (Table 1). MTDs of other SAPDs were determined by dose escalation studies in healthy female athymic nude mice (Charles River, 12-13 weeks old). A single intravenous (i.v.) injection of SAPD was dosed at day 1 and the body weights of each mouse (n=3) were recorded every day for six days and every the other day until two weeks. The dosing volume was determined based upon a ratio of 200 μL for a 20 g mouse. Doses of SAPDs used in the studied were 108, 72, 54, 45, 36 and 18 mg/kg (CPT equivalent).

[5] = CD measurement of SAPD stability in plasma/serum environments; format: physicochemical, rat; settings: for change of CD absorptions versus aqueous solution: 200 μM in rat plasma, FBS, mice plasma, aged overnight
Method: CD measurement of SAPDs in physiological environments. Stock solutions of SAPDs were prepared at 2 mM and aged overnight. The solutions were diluted to 200 μM in 10% fetal bovine serum (FBS), 10% mice plasma and 10% rat plasma, aged overnight before CD measurement. To study the kinetic stability of the assembled SAPDs upon dilution, the stock solutions of SAPD 1 and 2 were diluted to 100 μM, 50 μM, 25 μM, 10 μM, and 5 μM in 10% rat plasma. The CD spectra were recorded at 5 min, 1 h, 4 h, and 12 h. All the CD spectra were recorded from 300 to 450 nm using a 1 mm path length quartz cell. The spectra were collected and normalized from ellipticity (mdeg) to molar ellipticity (deg·cm2·dmol^−1).
Stability of SAPDs in Protein Environments. The interactions of nanoparticles with serum proteins are known to impact the disassociation of supramolecular assemblies in biologically relevant environment. To assess the stability of assembled SAPDs in more complex biological media, we performed CD experiments to investigate their long-term stability in various serum environments. SAPDs solutions (2 mM) were diluted using rat plasma (FIG. 21C), fetal bovine serum (FBS), and mice plasma to yield a final concentration of 200 μM, which were then aged overnight before CD measurement was taken. […] We also performed experiments to assess their kinetic stability upon plasma dilution, mimicking the dissociation process of SPs after intravenous injection. Solutions of SAPD 1 and 2 (2 mM) were diluted to 100 μM, 50 μM, 25 μM, 10 μM, and 5 μM in rat plasma, and time-dependent CD spectra were recorded at 5 min, 1 h, 4 h, and 12 h. […] At 12 h, the decrease reached 22% and 33%, respectively.

[6] = Circulation studies of SAPDs in rats; format: in vivo, Sprague Dawley (SD) rats; settings: 10 mg/kg i.v.
Method: Circulation studies of SAPDs in rats. Female Sprague Dawley (SD) Rats (200-250 g) were randomly grouped into four groups with three rats in each group. SAPDs were all intravenously (i.v.) dosed at 10 mg/kg (CPT equivalent). The dosing volumes of SAPDs were estimated by a ratio of 1 mL for a 200 g rat. The blood samples were collected at 5 min, 15 min, 30 min, 1 h, 2 h, 4 h, 8 h, and 12 h, which were immediately centrifuged to take plasma for further analysis and stored at −80° C. The plasma proteins were precipitated using similar protocols as mentioned above in drug release section and the determination of SAPDs and free CPT in the plasma by UPLC also used the same conditions.
Estimation of SAPD concentration in plasma upon injection. To calculation the concentration after dilution, we simply set the following parameters: body weight of mice (20 g), dosing volume of mice (200 μL), blood volume of mice (1.8 mL), body weight of rat (200 g), dosing volume of mice (1 mL), blood volume of mice (18 mL) and the dosage for both mice and rats (10 mg/kg).

[7] = single i.v. dose 18 mg/kg (CPT equivalent)
[8] = single i.v. dose 36 mg/kg (CPT equivalent)
[9] = single i.v. dose 54 mg/kg (CPT equivalent)

CC[C@]1(OC(=O)OCCSSC[C@@H](NC(C)=O)C(=O)N[C@@H](CCCCNC(=O)[C@@H](CSSCCOC(=O)O[C@]2(CC)C(=O)OCc3c2cc2n(c3=O)Cc3cc4ccccc4nc3-2)NC(C)=O)C(=O)N[C@@H](CCCCNC(=O)CCOCCOCCOCCOCCOC)C(=O)N[C@@H](CCCCNC(=O)CCOCCOCCOCCOCCOC)C(=O)N[C@@H](CCCCNC(=O)CCOCCOCCOCCOCCOC)C(=O)N[C@@H](CCCCNC(=O)CCOCCOCCOCCOCCOC)C(=O)N[C@@H](CCCCNC(=O)CCOCCOCCOCCOCCOC)C(=O)N[C@@H](CCCCNC(=O)CCOCCOCCOCCOCCOC)C(=O)N[C@@H](CCCCNC(=O)CCOCCOCCOCCOCCOC)C(=O)N[C@@H](CCCCNC(=O)CCOCCOCCOCCOCCOC)C(N)=O)C(=O)OCc2c1cc1n(c2=O)Cc2cc3ccccc3nc2-1 [SAPD 4]
remaining at 96 h ([1]; rat plasma (10%, v/v)): 18% | mean tumor volume (HT-29 cells [2]; mouse, in vivo): 286 mm^3 | median survival (HT-29 cells [2]; mouse, in vivo): 47 days | mean tumor volume (HT-29 cells [3]): 408 mm^3 | MTD [4]: 72 mg/kg | Survival/Total ([4]; single i.v. dose 18 mg/kg): 3/3 | day of maximum BW loss ([4]; single i.v. dose 18 mg/kg): 5 days | Maximum % BW loss [4, 7]: 3.1% | Survival/Total ([4]; single i.v. dose 36 mg/kg): 3/3 | day of maximum BW loss ([4]; single i.v. dose 36 mg/kg): 2 days | Maximum % BW loss [4, 8]: 7.2% | Survival/Total ([4]; single i.v. dose 45 mg/kg): 3/3 | Maximum % BW loss ([4]; single i.v. dose 45 mg/kg (CPT equivalent)): 0% | Survival/Total ([4]; single i.v. dose 54 mg/kg): 3/3 | day of maximum BW loss ([4]; single i.v. dose 54 mg/kg): 3 days | Maximum % BW loss [4, 9]: 3.9% | Survival/Total ([4]; single i.v. dose 72 mg/kg): 2/3 | day of maximum BW loss ([4]; single i.v. dose 72 mg/kg): 1 days | Maximum % BW loss ([4]; single i.v. dose 72 mg/kg (CPT equivalent)): 1.2% | Survival/Total ([4]; single i.v. dose 108 mg/kg): 1/3 | change of CD absorptions versus aqueous solution [5]: some slight changes | total CPT concentration in plasma ([6]; 1 h): 4.7 µM | total CPT concentration in plasma ([6]; 2 h): 1.0 µM

CC[C@]1(OC(=O)OCCSSC[C@@H](NC(C)=O)C(=O)N[C@@H](CCCCNC(=O)[C@@H](CSSCCOC(=O)O[C@]2(CC)C(=O)OCc3c2cc2n(c3=O)Cc3cc4ccccc4nc3-2)NC(C)=O)C(=O)N[C@@H](CCCCNC(=O)CCOCCOCCOCCOCCOC)C(=O)N[C@@H](CCCCNC(=O)CCOCCOCCOCCOCCOC)C(N)=O)C(=O)OCc2c1cc1n(c2=O)Cc2cc3ccccc3nc2-1 [TT 1]
remaining at 96 h [1]: 89% | toxicity according to body weight change (HT-29 cells [2]; 10 mg/kg i.v.): most toxicity | median survival (HT-29 cells [2]; SAPDs 10 mg/kg i.v. days 1, 5, 9, 13, irinotecan 100 mg/kg i.p. days 1, 8, 15): 56 days | mean tumor volume (HT-29 cells [2]; day 25, SAPDs 10 mg/kg (CPT equivalent) i.v. days 1, 5, 9, 13, irinotecan 100 mg/kg i.p. days 1, 8, 15): 60 mm^3 | mean tumor volume (HT-29 cells [3]): 172 mm^3 | MTD [4]: 24 mg/kg | Survival/Total ([4]; single i.v. dose 4.5 mg/kg): 3/3 | Maximum % BW loss ([4]; single i.v. dose 4.5 mg/kg (CPT equivalent)): 0% | Survival/Total ([4]; single i.v. dose 9 mg/kg): 3/3 | day of maximum BW loss ([4]; single i.v. dose 9 mg/kg): 1 days | Maximum % BW loss ([4]; single i.v. dose 9 mg/kg (CPT equivalent)): 5.1% | Survival/Total ([4]; single i.v. dose 15 mg/kg): 3/3 | day of maximum BW loss ([4]; single i.v. dose 15 mg/kg): 2 days | Maximum % BW loss ([4]; single i.v. dose 15 mg/kg (CPT equivalent)): 5.0% | Survival/Total ([4]; single i.v. dose 18 mg/kg): 3/3 | day of maximum BW loss ([4]; single i.v. dose 18 mg/kg): 1 days | Maximum % BW loss [4, 7]: 6.5% | Survival/Total ([4]; single i.v. dose 24 mg/kg): 3/3 | day of maximum BW loss ([4]; single i.v. dose 24 mg/kg): 3 days | Maximum % BW loss ([4]; single i.v. dose 24 mg/kg (CPT equivalent)): 9.8% | Survival/Total ([4]; single i.v. dose 30 mg/kg): 1/3 | day of maximum BW loss ([4]; single i.v. dose 30 mg/kg): 4 days | Maximum % BW loss ([4]; single i.v. dose 30 mg/kg (CPT equivalent)): 20.6% | Survival/Total ([4]; single i.v. dose 36 mg/kg): 0/3 | day of maximum BW loss ([4]; single i.v. dose 36 mg/kg): 3 days | Maximum % BW loss [4, 8]: 21.2% | Survival/Total ([4]; single i.v. dose 54 mg/kg): 0/3 | day of maximum BW loss ([4]; single i.v. dose 54 mg/kg): 3 days | Maximum % BW loss [4, 9]: 20% | drop of CD absorption at 389 nm ([5]; 5 μM in rat plasma, 5 min): 15% | drop of CD absorption at 389 nm ([5]; 5 μM in rat plasma, 12 h): 33% | drop of CD absorption at 389 nm ([5]; 10 μM in rat plasma, 5 min): 10% | drop of CD absorption at 389 nm ([5]; 10 μM in rat plasma, 12 h): 22% | change of CD absorptions versus aqueous solution [5]: no noticeable changes | stability upon dilution over time ([5]; rat plasma, concentrations above 25 μM): highly stable | CPT remained in the bounded form ([6]; 5 min): 86% | total CPT concentration in plasma ([6]; 1 h): 15.3 µM | total CPT retained in the conjugate form ([6]; 1 h): more than 72% | total CPT concentration in plasma ([6]; 2 h): 8.1 µM
